Assay [1] addresses T1, GST-ANI-1^C-term (681-1159 AA) (C. elegans, UniProt Q9XTT4 681-1159).
T1 construct: ANI-1 (anillin homolog), C. elegans, residues 681-1159 comprising the RBD, C2 region and PH domain; Cloned into pGEX-4T; used on the beads directly in the pull-down; also called GST-tagged C-terminus of ANI-1; anillin C-terminus; source: E. coli BL21 (DE3), purified on Glutathione Sepharose 4B beads
T1 sequence (looked up): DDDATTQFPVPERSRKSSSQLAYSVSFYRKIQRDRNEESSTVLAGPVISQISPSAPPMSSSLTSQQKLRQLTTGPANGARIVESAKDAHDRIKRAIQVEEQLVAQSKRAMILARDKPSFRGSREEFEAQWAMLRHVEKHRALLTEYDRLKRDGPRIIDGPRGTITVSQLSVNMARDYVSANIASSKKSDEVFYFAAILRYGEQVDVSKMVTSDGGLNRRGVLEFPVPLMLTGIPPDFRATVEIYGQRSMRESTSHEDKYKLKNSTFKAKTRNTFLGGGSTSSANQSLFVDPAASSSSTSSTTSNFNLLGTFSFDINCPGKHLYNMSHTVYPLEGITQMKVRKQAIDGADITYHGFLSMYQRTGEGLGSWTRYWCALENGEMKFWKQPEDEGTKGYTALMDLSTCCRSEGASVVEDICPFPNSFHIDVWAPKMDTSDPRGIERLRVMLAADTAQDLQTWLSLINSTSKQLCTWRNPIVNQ
Put plainly: pull-down; ~4 μg GST-ANI-1 fragment on Glutathione Sepharose beads mixed with ~4 μg purified 10xHis-RHO-1 in 300 μl binding buffer (20 mM Tris pH 7.4, 150 mM NaCl, 5 mM MgCl2, 0.1% Triton X-100, 1 mM DTT) with 1 mM GTP, 4°C, 1.5 h; bound RHO-1 detected by anti-His immunoblot. The settings on record: both partners purified.

In assay [2] the target is T2, GST-ANI-1^Link+C-term (460-1159 AA) (C. elegans, UniProt Q9XTT4 460-1159).
T2 construct: ANI-1 (anillin homolog), C. elegans, residues 460-1159: linker region, RBD, C2 region and PH domain; Cloned into pGEX-4T; used on the beads directly in the pull-down; also called protein consisting of the linker region and C-terminus; source: E. coli BL21 (DE3), purified on Glutathione Sepharose 4B beads
T2 sequence (looked up): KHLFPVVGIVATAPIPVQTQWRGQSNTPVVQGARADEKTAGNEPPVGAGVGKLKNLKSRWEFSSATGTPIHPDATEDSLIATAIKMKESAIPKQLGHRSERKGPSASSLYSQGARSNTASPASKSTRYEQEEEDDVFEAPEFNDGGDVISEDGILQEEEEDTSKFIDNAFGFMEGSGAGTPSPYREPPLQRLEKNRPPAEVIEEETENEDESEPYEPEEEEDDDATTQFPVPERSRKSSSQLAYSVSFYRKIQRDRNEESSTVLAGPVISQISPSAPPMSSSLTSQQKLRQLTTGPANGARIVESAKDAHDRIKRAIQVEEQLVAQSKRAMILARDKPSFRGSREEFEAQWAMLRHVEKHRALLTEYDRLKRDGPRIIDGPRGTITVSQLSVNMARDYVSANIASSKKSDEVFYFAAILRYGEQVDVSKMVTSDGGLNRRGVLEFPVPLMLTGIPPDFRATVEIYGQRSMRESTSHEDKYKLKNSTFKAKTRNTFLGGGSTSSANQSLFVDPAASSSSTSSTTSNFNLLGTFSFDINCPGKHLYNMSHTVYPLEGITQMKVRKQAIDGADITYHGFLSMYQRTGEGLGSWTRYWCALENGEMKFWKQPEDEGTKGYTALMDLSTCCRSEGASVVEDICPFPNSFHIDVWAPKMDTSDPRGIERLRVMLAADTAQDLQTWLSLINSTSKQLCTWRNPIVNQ
The assay is described as above. The settings on record: both partners purified.

B1: 10xHis-RHO-1^WT (wild type RHO-1, 1-188 AA) (domain or fragment)
chain: not shown
notes: RHO-1 (RhoA in humans), C. elegans, residues 1-188 (without the CAAX motif), amplified from cDNA; Cloned into pET-19b; also called His-tagged RHO-1; RhoA; source: E. coli BL21 (DE3), purified (Ni-NTA)
For the molecule B1, the binding result in assay [1] was “binds”.

B2: 10xHis-RHO-1^Q63L (constitutively active RHO-1, 1-188 AA) (domain or fragment)
chain: not shown
notes: RHO-1 (RhoA in humans), C. elegans, residues 1-188, with Q63L made by site-directed mutagenesis of the wild type construct; Cloned into pET-19b; source: E. coli BL21 (DE3), purified (Ni-NTA)
As for B2, the binding result in assay [2] and in assay [1] was “binds” throughout.

These data come from paper PMC12013513, “Anillin mediates unilateral furrowing during cytokinesis by limiting RhoA binding to its effectors” (The Journal of Cell Biology, 2025).
